Results on 3 molecules are retold here after article PMC6366944 (Cell, 2018).

The target in assay [1] is T1, EBOV VP30 C-terminal domain, residues 130-272 (Zaire ebolavirus, UniProt Q05323 130-272).
T1 sequence: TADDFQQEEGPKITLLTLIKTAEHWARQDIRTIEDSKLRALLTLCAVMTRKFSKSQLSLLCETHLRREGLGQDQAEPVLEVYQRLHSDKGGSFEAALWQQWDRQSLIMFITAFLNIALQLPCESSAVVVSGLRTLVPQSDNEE
The assay is described as follows: fluorescence polarisation.

Assay [2] addresses T2, EBOV VP30 residues 89-288 (in vitro pull-down) (Zaire ebolavirus, UniProt Q05323 89-288).
T2 sequence: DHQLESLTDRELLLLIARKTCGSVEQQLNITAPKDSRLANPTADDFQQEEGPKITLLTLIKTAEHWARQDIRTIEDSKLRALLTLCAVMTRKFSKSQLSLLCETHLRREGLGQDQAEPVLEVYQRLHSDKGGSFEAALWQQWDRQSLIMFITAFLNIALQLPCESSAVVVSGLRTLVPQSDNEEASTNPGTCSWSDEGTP
Put plainly: pull-down.

Assay [3] has as its target T1, EBOV VP30 C-terminal domain, residues …. Put plainly: ITC.

In assay [1], RTPTVAPPAPVYRDHS [unlabeled NP peptide] yielded a Kd of 89.2 ± 2.26 µM.
With SLPATPVFVPVPPPPLYPPPPHTLP [MBP fusion of RBBP6 residues 549-573], in assay [2], the binding result is “binds”.
As for SLPATPVFVPVPPPPLYPPPPHT [RBBP6 peptide, residues 549-571], the Kd worked out at 0.75 ± 0.095 µM in assay [3] and 18.1 ± 0.41 µM in assay [1]. For the same molecule, in assay [3], the “stoichiometry N” value was determined as 1.
